Substrate in data set [1]: O=c1cc(-c2ccccc2)oc2c(O)c(O)ccc12
Put plainly: HPLC glucosylation assay, Lineweaver-Burk. The data set is classed as biochemical, Ornithogalum saundersiae. The note with it: 1 mM UDP-Glc fixed; 7,8-dihydroxyflavone 0-1 mM. An excerpt: (§1) HPLC glucosylation assay, Lineweaver-Burk on OsUGT1

Substrate in data set [2]: O=C1/C(=C/c2ccc(O)c(O)c2)Oc2cc(O)ccc21
Put plainly: HPLC glucosylation assay, Lineweaver-Burk. As to conditions: 1 mM UDP-Glc fixed; sulfuretin 0-1 mM. The data set is classed as biochemical, Ornithogalum saundersiae.
Source text: as §1

The results in this text go back to paper PMC6071076, “Transcriptome-Wide Identification of an Aurone Glycosyltransferase with Glycosidase Activity from Ornithogalum saundersiae” (Genes, 2018).

B1: OsUGT1 (Ornithogalum saundersiae) (protein)
chain: MEGKKQHVVLFPFMGQGHITPFLLLAELIHEYYPDYTITLVNTPLNIRNLQSSLPPGSKINLKSLPFDASSHGLPPDTENTKAIPFHLFINLFRASETLEPAFERLIAGITEEDGIPPLCIIADNFFSWTLHIARKFGVFHSTFLTSGAYGSALLFSLWKYLPHRNAYSDEFSLPDFPEIRLHHTQLSNILVVADGGDAWSVLLRRLNELCTRSDAVLVNTVKEFEARGLSMLREQLQGPIFPVGPLLCTSASHSMGMDLSDWLDSQPSASVLYVSFGSQNTIRASQMLKLAMALEATSRPFIWVIRPPVGFDVRVQFKSEWLPEGFEDRMRGTKQGFIVHQWAPQVEILSHPSTGAFLSHCGWNSVLESLVHGVPIIGWPLSAEQFYNSKFLMEEVGVCVEAARGNRESSEVKKEEVERAIEIVMDNEEIRRKAKETARVLKSALKEEENNTNVGSSLRGLKEFFQTALSKRVVT
Take B1: in data set [1], the Km amounted to 713 ± 69 µM and the maximal velocity (Vmax) is 28.3 µM/min. For the same protein, in data set [2], the Km was determined as 159 ± 11 µM and the Vmax stood at 3.47 µM/min.
